# Laboratory results as given in US6323185, “Anti-viral guanosine-rich oligonucleotides and method of treating HIV” (The United States of America as represented by the …).
# Tests used:
# [1] = target: T1, HIV-1 integrase wild-type (IN1-288) (HIV-1, UniProt P12497 P12497:1148-1435); experiment: inhibition; first activity column (headed strand transfer); other column 0.500; conditions: G4
# [2] = target: T1, HIV-1 integrase wild-type (IN1-288); experiment: inhibition; first activity column (headed strand transfer, order matches 3'-processing in Table D-1); other column 0.600; conditions: G4
# [3] = target: T1, HIV-1 integrase wild-type (IN1-288); experiment: inhibition; 3'-processing (+/-17); strand transfer 24 nM; Table C-2 0.060/0.020 uM; conditions: intramolecular G4
# [4] = target: T1, HIV-1 integrase wild-type (IN1-288); experiment: inhibition; first activity column (headed strand transfer); other column 0.134; conditions: G4
# [5] = target: T1, HIV-1 integrase wild-type (IN1-288); experiment: inhibition; first activity column (headed strand transfer, order matches 3'-processing elsewhere); other column 0.750; Table B-7 gives >0.5 for both; conditions: G4
# [6] = target: T1, HIV-1 integrase wild-type (IN1-288); experiment: inhibition; first activity column (headed strand transfer); other column 0.050
# [7] = target: CD4 (UniProt P01730 P01730:26-396); experiment: competition; ID50, oligo with immobilized CD4; conditions: tags: immobilized, gp120 capture ELISA kit
# [8] = target: T2, gp120 envelope glycoprotein (HIV-1, UniProt P04578 P04578:33-511); experiment: competition; ID50, gp120/CD4 ELISA; conditions: tags: gp120 capture ELISA kit
# [9] = target: T1, HIV-1 integrase wild-type (IN1-288); experiment: inhibition; first activity column (headed strand transfer); other column 0.610; Table C-2 prints 3' end ggg; conditions: G4
# [10] = target: T1, HIV-1 integrase wild-type (IN1-288); experiment: inhibition; first activity column (headed strand transfer); other column 0.156; conditions: G4
# [11] = target: T1, HIV-1 integrase wild-type (IN1-288); experiment: inhibition; first activity column (headed strand transfer); other column 0.055; conditions: G4
# [12] = target: T1, HIV-1 integrase wild-type (IN1-288); experiment: inhibition; first activity column (headed strand transfer); other column 0.016; conditions: G4, loop 3 inverted
# [13] = target: T2, gp120 envelope glycoprotein; experiment: competition; ID50, gp120/CD4 ELISA, preincubated with gp120; conditions: tags: gp120 capture ELISA kit
# [14] = target: T1, HIV-1 integrase wild-type (IN1-288); experiment: inhibition; first activity column (headed strand transfer); other column 0.030; conditions: G4
# [15] = target: T1, HIV-1 integrase wild-type (IN1-288); experiment: inhibition; 3'-processing; strand transfer 0.070 uM; conditions: G4
# [16] = target: T1, HIV-1 integrase wild-type (IN1-288); experiment: inhibition; first activity column (headed strand transfer); other column 0.013
# [17] = target: T1, HIV-1 integrase wild-type (IN1-288); experiment: inhibition; 3'-processing; strand transfer 620 nM; conditions: G4
# [18] = target: T1, HIV-1 integrase wild-type (IN1-288); experiment: inhibition; 3'-processing; strand transfer 0.023 uM; conditions: G4
# [19] = target: T1, HIV-1 integrase wild-type (IN1-288); experiment: inhibition; first activity column (headed strand transfer); other column 0.095; conditions: G4
# [20] = target: T1, HIV-1 integrase wild-type (IN1-288); experiment: inhibition; first activity column (headed strand transfer); other column 0.060; conditions: G4
# [21] = target: T1, HIV-1 integrase wild-type (IN1-288); experiment: inhibition; first activity column (headed strand transfer); other column 0.084; conditions: G4
# [22] = target: T1, HIV-1 integrase wild-type (IN1-288); experiment: inhibition; first activity column (headed strand transfer); other column 0.070; conditions: G4
# [23] = target: T1, HIV-1 integrase wild-type (IN1-288); experiment: inhibition; first activity column (headed strand transfer); other column 0.120; conditions: G4
# [24] = target: T1, HIV-1 integrase wild-type (IN1-288); experiment: inhibition; first activity column (headed strand transfer); other column 0.100; conditions: G4
# [25] = target: T1, HIV-1 integrase wild-type (IN1-288); experiment: inhibition; 3'-processing (+/-26); strand transfer 134 nM; conditions: G4
# [26] = target: T1, HIV-1 integrase wild-type (IN1-288); experiment: inhibition; 3'-processing; strand transfer 0.123 uM; conditions: one tetrad disrupted
# [27] = target: T1, HIV-1 integrase wild-type (IN1-288); experiment: inhibition; first activity column (headed strand transfer); other column 0.062; conditions: G4
# [28] = target: T1, HIV-1 integrase wild-type (IN1-288); experiment: inhibition; first activity column (headed strand transfer); other column 0.040; conditions: G4
# [29] = target: T1, HIV-1 integrase wild-type (IN1-288); experiment: inhibition; 3'-processing; strand transfer 0.125 uM; conditions: G4
binder,measurement,setting,value
"GTGGTGGGTGTGGTTGGT (ssDNA, PS at first and last linkages) [T30675]",IC50,[1],485 nM
"GTGGTTGGTGTGGTTGG (ssDNA, PS at first and last linkages) [T30673]",IC50,[2],790 nM
"GGGTGGGTGGGTGGGT (ssDNA, PS at first and last linkages) [T30695]",IC50,[3],43 nM
"GTGGGTGGTGGGTGGGT (ssDNA, PS at first and last linkages, capital T = C5-propynyl dU) [T30722]",IC50,[4],129 nM
"GGTTGGTGTGGTTGG (ssDNA, PS at first and last linkages (Table B-7; Table C-1 lists it as PT)) [T30659 thrombin-binding aptamer pPT]",IC50,[5],870 nM
"GTGGTGGGTGGGTGGGT (ssDNA, PS at first and last linkages, 5-bromo-dU at positions 5, 9, 13 [n positions 5,9,13 = modified dU]) [T30571]",IC50,[6]; G4,55 nM
"GATCCATGTCAGTGACAC (ssDNA, phosphodiester, amine) [1231 random]",IC50,[7],> 50000 nM
same,IC50,[8],> 100000 nM
"GTGGTTGGTGTGGTTGGT (ssDNA, PS at first and last linkages) [T30674]",IC50,[9],760 nM
"GTGGTTGGTGGGTGGGT (ssDNA, PS at first and last linkages) [T30679]",IC50,[10],159 nM
"GTGGTGGGTGGGTGGGT (ssDNA, PS at first and last linkages, 5-iodo-dU at positions 5, 9, 13 [n positions 5,9,13 = modified dU]) [T30579]",IC50,[11],60 nM
"GTGGTGGGTGGGGTGGT (ssDNA, PS at first and last linkages) [T30698]",IC50,[12],150 nM
"GTGGTGGGTGGGTGGGTGGTGGGTGGTGGTTGTGGGTGGGTGGTG (ssDNA, all PS) [I100-21]",IC50,[13],70 nM
same,IC50,[7],48 nM
"GTGGTGGGTGGGTGGGT (ssDNA, PS at first and last linkages, capital T = C5-propynyl dU) [T30702]",IC50,[14],32 nM
"GTGGTGGGTGGGTGGGT (ssDNA, PS at first and last linkages, capital T = C5-propynyl dU) [T30701]",IC50,[14],72 nM
"GTGGTGGGTGGGTGGGT (ssDNA, all PS) [T30038]",IC50,[15],90 nM
"GTGGTGGGTGGGTGGGT (ssDNA, PS at first and last linkages, 5-iodo-dU at position 5 [n positions 5 = modified dU]) [T30576]",IC50,[6]; G4,65 nM
"GTGGTGGGGTGGTGGGT (ssDNA, PS at first and last linkages) [T30697]",IC50,"[16]; G4, loop 2 inverted",130 nM
"GTGGGTGGTGGGGTGGT (ssDNA, PS at first and last linkages) [T30699]",IC50,"[6]; G4, loops 1 and 3 inverted",136 nM
"GTGGTTGGTGGGTTGGT (ssDNA, PS at first and last linkages) [T30677]",IC50,[17],725 nM
"GGGTGGGTGGGTGGGT (ssDNA, PS at first and last linkages, capital T = C5-propynyl dU) [T30719]",IC50,[11],55 nM
"GGTTGGTGTGGTTGG (ssDNA, all PS (Table B-7; Table C-1 lists it as pPT)) [T30341 thrombin-binding aptamer PT]",IC50,[18],42 nM
"GTGGTGGGTGGGTGGGT (ssDNA, PS at first and last linkages, 5-iodo-dU at position 13 [n positions 13 = modified dU]) [T30578]",IC50,[6]; G4,60 nM
"GTGGTGGGTGGGTGGGT (ssDNA, 3'-cholesterol via triglycyl linker) [T30075]",IC50,[19],110 nM
"GTGGTGGGCGGGTGGGT (ssDNA, PS at first and last linkages) [T30744]",IC50,[20],105 nM
"GUGGUGGGUGGGUGGGU (ssRNA, PS at first and last linkages, RNA sugars) [T30661]",IC50,[21],111 nM
"GTGGTGGGTGGGTGGGT (ssDNA, PS at first and last linkages, 5-iodo-dU at position 9 [n positions 9 = modified dU]) [T30577]",IC50,[11],65 nM
"GTGGTGGGTGGGTGGGT (ssDNA, PS at first and last linkages, 5-bromo-dU at position 13 [n positions 13 = modified dU]) [T30570]",IC50,[22],90 nM
"GATCCATGTCAGTGACAC (ssDNA, all PS) [1232 random PT]",IC50,[7],> 10000 nM
same,IC50,[8],> 10000 nM
"GTGGTGGGTGGGTTGGT (ssDNA, PS at first and last linkages) [T30678]",IC50,[23],98 nM
"GTGGTGGGTGGGCGGGT (ssDNA, PS at first and last linkages) [T30745]",IC50,[24],100 nM
"GGGTGGGTGGGTGGGTGG (ssDNA, all PS) [1174]",IC50,[8],90 nM
"GTGGGTGGTGGGTGGGT (ssDNA, PS at first and last linkages) [T30696]",IC50,"[16]; G4, loop 1 inverted",122 nM
"GTGGTGGGTGTGGTGGGT (ssDNA, PS at first and last linkages) [T30676]",IC50,[25],148 nM
"GTGATGGGTGGGTGGGT (ssDNA, PS at first and last linkages) [T30526]",IC50,[26],200 nM
"GGGGTGGTGGGTGGGT (ssDNA, PS at first and last linkages, capital T = C5-propynyl dU) [T30720]",IC50,[27],59 nM
"GTGGTGGGTGGGTGGGT (ssDNA, PS at first and last linkages, capital T = C5-propynyl dU) [T30700]",IC50,[28],82 nM
"GTGGTGGGTGGGTGGGT (ssDNA, all phosphodiester) [T30175]",IC50,[29],170 nM
"GTTGGGGGTTGTTGGTGGGGTGGTGG (ssDNA, all PS) [I100-12]",IC50,[13],80 nM
same,IC50,[7],475 nM
